Assay results from article PMC5007091 (Molecular Biology of the Cell, 2016).

Biological target: the molecule itself
Assay: split reporter

B1: Cdc10 (natural protein)
chain: MDPLSSVQPASYVGFDTITNQIEHRLLKKGFQFNIMVVGQSGLGKSTLINTLFASHLIDSATGDDISALPVTKTTEMKISTHTLVEDRVRLNINVIDTPGFGDFIDNSKAWEPIVKYIKEQHSQYLRKELTAQRERFITDTRVHAILYFLQPNGKELSRLDVEALKRLTEIANVIPVIGKSDTLTLDERTEFRELIQNEFEKYNFKIYPYDSEELTDEELELNRSVRSIIPFAVVGSENEIEINGETFRGRKTRWSAINVEDINQCDFVYLREFLIRTHLQDLIETTSYIHYEGFRARQLIALKENANSRSSAHMSSNAIQR
- fluorescence at the bud neck, fold over the negative controls: > 20 fold
